Here are results for 1 molecule from patent US20040167074A1, “Therapeutic applications of mFLINT polypeptides” (priority 1998, published 2004).

“Also recorded” adds a separate entry of the source.

In test [1] the target is T1, CD40 L (Homo sapiens, UniProt P29965).
T1 construct: purchased
T1 sequence (P29965 113-261 limits assumed): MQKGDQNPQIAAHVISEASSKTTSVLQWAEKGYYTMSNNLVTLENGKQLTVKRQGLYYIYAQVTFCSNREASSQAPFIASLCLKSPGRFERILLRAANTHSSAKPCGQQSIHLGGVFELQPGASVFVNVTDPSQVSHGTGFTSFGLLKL
Kind of test: Dot blot binding of mFLINT to TNF ligands.

In test [2] the target is T2, FasL (Homo sapiens, UniProt P48023).
T2 construct: purchased Kamiya Biomedical Company
T2 sequence (P48023 130-281 limits assumed): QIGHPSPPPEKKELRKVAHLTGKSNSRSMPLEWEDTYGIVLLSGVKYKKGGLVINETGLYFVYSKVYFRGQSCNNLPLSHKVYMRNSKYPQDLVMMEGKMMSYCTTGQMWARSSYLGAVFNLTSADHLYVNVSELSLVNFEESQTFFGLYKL
As to the kind of experiment: BiaCore real-time biomolecular interaction analysis (surface plasmon resonance). The format is binding. From the text:
FLINT-Fas L binding may be confirmed and specifics of binding determined (e.g., kinetics, specificity, affinity, cooperativity, relative binding pattern, concentration) using real-time biomolecular interaction analysis. This technology confers the ability to study biomolecular interactions in real time, without labeling any of the interactants. In particular, it takes advantage of the optical phenomenon surface plasmon resonance, and detection depends on changes in the mass concentration of macromolecules at the biospecific interface. Interactions are followed in real time, so that kinetic information is readily derived. In many cases, investigations can be performed without prior purification of components.
Measurements are accomplished using a BiaCore 2000 instrument. The instrument, accompanying chips, immobilization and maintenance kits and buffers are obtained from Biacore AB, Rapsgatan 7, S-754 50 Uppsala, Sweden. FasL is obtained from Kamiya Biomedical Company, 910 Industry Drive, Seattle, Wash. 98188, Guanidine Isothiocyanate Solution from GibcoBRL, and mFLINT is prepared as in Examples 8 and 9.
Experiments using immobilized FasL loaded with a solution containing mFLINT. […] This is explained by the fact that FasL is a trimer, yet here FasL monomer was bound. Further experiments utilized bound FLINT with FasL in solution, allowing for trimer formation. […] This observations indicate that FLINT should effectively compete with Fas for FasL binding, which likely explains the therapeutic benefit observed in experiments detailed below.

Test [3] concerns intact hippocampal neurons along the dorsal CA1 regions. Kind of test: Gerbil cerebral ischemia (carotid occlusion), hippocampal CA1 neuron count. The format is in vivo. To be noted: 5 min carotid occlusion; 5 ul bolus 0.63 mg/ml then 1 ul/h for 3 days intracerebral; day 5; p-0.0039 t-Test, p=0.0037 Wilcoxon. The procedure:
Adult male gerbils (70 to 80 g body weight, Charles River Laboratories, Wilmington, Mass.) were anesthetized by i.p. injections of sodium pentobarbital (Nembutal) 40 mg/kg, and additional i.p. injections of 10 mg/kg when necessary to maintain a surgical plane of anesthesia. Animals were placed on a thermostatically controlled heating blanket to maintain body temperature at 37° C. The ventral surface of the neck was exposed, the fur shaved, and the skin cleaned with 2% iodine solution.
After the pre-surgical preparation, a midline incision was made, and the skin opened. The sternohyoid muscles were divided to exposed and isolate the common carotid arteries (CCA) for clamping. Sterilized aneurysm clips (blade with 0.15 mm, closing force ^˜10 gm) was secured by means of a sterilized clip applier on both left and right CCA for 5 minutes. The clamps were then removed and the patency of the arteries checked visually. The wound in the neck was closed by surgical suture. […]
On the fifth day of survival; the gerbils were sacrificed in a CO2 chamber. […] After staining with Cresyl violet, the sections were viewed under a microscope at 40× magnification for cell counter quantification of the intact hippocampal neurons along the dorsal CA1 regions (0.5 mm in length) of both hemispheres. Data were analyzed by Student t-Test and the Wilcoxon ranking test.

For test [4], the system named is osteoclasts. As to the kind of experiment: Murine osteoclast differentiation assay (TRAP staining). The format is cell-based, mouse. The following applies: mean and standard error of 6 wells. On the procedure: Male Balb/C mice (4-8 weeks old) were euthanized with CO2, the femurs removed, and the marrow flushed out of the femurs with growth medium. Bone marrow cells were pelleted by centrifugation at 500×g for 6 min. and resuspended in the growth medium (RPMI 1640 plus 5% heat inactivated fetal bovine-serum and 1% antibiotic-antimycotic solution). The marrow population (5×10^4 cells/cm^2) was seeded in tissue culture dishes in which BALC cells (a stable cell line derived from neonatal mouse calvariae, 1.5×10^4 cells/cm^2) had been plated 2 h prior to addition of bone marrow. The cells were cultured for 7 days in a humidified incubator at 37° C. with 5% CO2 with medium changes on days 3 and 5. Cultures were treated with or without 10^−8M 1,25-(OH)2D3 on days 0, 3, and 5. In addition, -the cells were treated with or without secreted mFLINT protein purified from the conditioned medium of cells transfected with mFLINT gene (FIG. 1). Following 7 days of culture, the cells in 24-well cluster dishes were fixed with formalin (3.7% for 10 min) and then stained for tartrate-resistant acid phosphatase (TRAP) using a modification of the method described by Graves, L and Jilka R L, J Cell Physiology 145:102 1990. The number of osteoclasts (TRAP-positive cells containing 3 or more nuclei) was quantitated.

B1: mFLINT: mature FLINT without leader peptide (FIG. 3), soluble TNFR superfamily member, made according to Examples 8 and 9 (protein)
chain: VAETPTYPWRDAETGERLVCAQCPPGTFVQRPCRRDSPTTCGPCPPRHYTQFWNYLERCRYCNVLCGEREEEARACHATHNRACRCRTGFFAHAGFCLEHASCPPGAGVIAPGTPSQNTQCQPCPPGTFSASSSSSEQCQPHRNCTALGLALNVPGSSSHDTLCTSCTGFPLSTRVPGAEECERAVIDFVAFQDISIKRLQRLLQALEAPEGWGPTPRAGRAALQLKLRRRLTELLGAQDGALLVRLLQALRVARMPGLERSVRERFLPVH
modifications: glycosylated
B1: in test [1], the “binding in dot blot” value is given as “No appreciable binding”. Also, the “KD for FLINT-FasL relative to immobilized-FasL experiment” value in test [2] (bound FLINT with FasL in solution, allowing trimer formation) is reported as 2 orders of magnitude better. The same molecule had a Kd in test [2] (immobilized FasL (monomer bound), analyte in solution) of 113 nM. For the same molecule, the “neuronal survival (intact hippocampal CA1 neurons)” value in test [3] is listed as “significant effect on neuronal survival compared to vehicle; also recorded: indistinguishable from normal controls”. Besides, the Osteoclasts/well came to 40.50 ± 2.39 Osteoclasts/well in test [4] (FLINT 0.01 ng/ml, control 145.50); 65.50 ± 3.33 Osteoclasts/well in test [4] (FLINT 0.10 ng/ml); 97.50 ± 3.10 Osteoclasts/well in test [4] (FLINT 1.00 ng/ml); 170.17 ± 8.26 Osteoclasts/well in test [4] (FLINT 10.00 ng/ml); 335.00 ± 8.90 Osteoclasts/well in test [4] (FLINT 100.00 ng/ml).
